Measurements from patent EP3916006A1.

Columns and labels:
[1] = target: GPR93 (UniProt Q149R9); experiment: cell-based or functional assay
[2] = target: calcium sensing receptor (UniProt Q9QY96); experiment: cell-based or functional assay
Sequence of UniProt Q9QY96 (Q9QY96 20-1079 limits assumed): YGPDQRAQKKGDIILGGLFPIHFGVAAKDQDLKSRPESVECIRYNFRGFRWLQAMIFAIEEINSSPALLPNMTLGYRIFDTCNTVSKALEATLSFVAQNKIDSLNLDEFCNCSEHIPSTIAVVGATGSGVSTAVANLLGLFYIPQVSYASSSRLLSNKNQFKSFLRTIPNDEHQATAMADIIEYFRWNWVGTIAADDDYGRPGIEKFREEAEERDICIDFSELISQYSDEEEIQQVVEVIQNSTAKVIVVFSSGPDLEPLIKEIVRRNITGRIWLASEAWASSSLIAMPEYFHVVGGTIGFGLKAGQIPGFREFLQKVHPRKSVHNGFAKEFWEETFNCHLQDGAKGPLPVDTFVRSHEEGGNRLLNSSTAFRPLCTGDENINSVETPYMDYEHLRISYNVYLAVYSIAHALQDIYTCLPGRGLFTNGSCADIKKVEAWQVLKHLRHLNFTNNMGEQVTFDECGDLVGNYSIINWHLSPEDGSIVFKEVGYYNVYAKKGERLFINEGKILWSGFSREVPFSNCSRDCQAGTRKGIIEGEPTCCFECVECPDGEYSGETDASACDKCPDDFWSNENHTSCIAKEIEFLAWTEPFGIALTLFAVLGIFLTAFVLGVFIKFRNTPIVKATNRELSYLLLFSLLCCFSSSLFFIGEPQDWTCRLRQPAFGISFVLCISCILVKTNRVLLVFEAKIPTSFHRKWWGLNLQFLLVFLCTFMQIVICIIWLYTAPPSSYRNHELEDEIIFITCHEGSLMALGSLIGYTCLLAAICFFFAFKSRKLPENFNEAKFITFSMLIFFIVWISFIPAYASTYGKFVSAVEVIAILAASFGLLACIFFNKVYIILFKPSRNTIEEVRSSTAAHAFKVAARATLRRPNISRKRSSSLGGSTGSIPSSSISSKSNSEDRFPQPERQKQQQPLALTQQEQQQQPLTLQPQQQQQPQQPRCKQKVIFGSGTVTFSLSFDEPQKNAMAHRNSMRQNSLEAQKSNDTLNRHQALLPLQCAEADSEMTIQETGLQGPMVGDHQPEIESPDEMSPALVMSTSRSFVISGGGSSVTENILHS

Sequence of UniProt Q149R9 (Q149R9 whole entry): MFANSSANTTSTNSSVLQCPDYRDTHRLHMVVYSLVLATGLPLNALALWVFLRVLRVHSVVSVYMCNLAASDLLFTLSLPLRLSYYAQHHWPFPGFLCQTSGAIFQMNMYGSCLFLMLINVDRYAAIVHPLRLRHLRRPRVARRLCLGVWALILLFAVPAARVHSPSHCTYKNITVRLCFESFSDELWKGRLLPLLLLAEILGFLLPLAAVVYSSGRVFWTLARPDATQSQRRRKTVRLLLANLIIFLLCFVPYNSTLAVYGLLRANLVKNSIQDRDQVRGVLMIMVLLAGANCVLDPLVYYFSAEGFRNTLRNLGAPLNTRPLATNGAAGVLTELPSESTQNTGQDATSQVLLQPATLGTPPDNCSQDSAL

CCK secretion by STC-1 cells (ELISA), peptide at 0.125 mM with TC LPA5 4 at 4 µM (198 pM with vehicle) [1]: 111 pM | CCK secretion by STC-1 cells (ELISA), peptide at 0.125 mM with NPS2143 at 6 µM (198 pM with vehicle) [2]: 88 pM
Substance: synthetic peptide SEQ ID NO: 5 90RYLGYLE96, derived from αs1-casein
